Biological target: monoclonal antibody M75 (MAb M75), secreted by hybridoma VU-M75, ATCC HB 11128
Experiment: competition ELISA (peptide against immobilized GST-MN for M75)

IC50: 1 ng/mL
Binder: GGSSGEDDPLGEEDLPSEEDSP [oligopeptide … (aa 51-72) [SEQ ID NO: 104]]
